In US20140357577A1, “HIV Membrane Fusion Inhibitors” (priority 2011, published 2014):
Starred links: 1 amine or outer side, 2 acyl side, 3 side chain; linkers in the order of their positions; H or OH if unused. Positions of bridges follow the written chain, without caps; N, C: chain ends. Non-standard residues stand in square brackets, D forms with d. *: point of attachment. pXylylene = c1cc(C[*:2])ccc1C[*:1]; Palmitoyl = CCCCCCCCCCCCCCCC(=O)*; tBuAla = CC(C)(C)C[C@H](N)C(=O)O; Cha = N[C@@H](CC1CCCCC1)C(=O)O; Suc = O=C(CCC(=O)[*:2])[*:1]; Pentanoyl = CCCCC(=O)*; B1 = not defined here

B1: peptide 57 (peptide)
peptide: Ac-ACYIACIEALIRAAQEQQEKNEAALR-NH2
modifications: linker 2-6 via pXylylene
SMILES: CC[C@H](C)[C@@H]1NC(=O)[C@H](Cc2ccc(O)cc2)NC(=O)[C@@H](NC(=O)[C@H](C)NC(C)=O)CSCc2ccc(cc2)CSC[C@@H](C(=O)N[C@H](C(=O)N[C@@H](CCC(=O)O)C(=O)N[C@@H](C)C(=O)N[C@@H](CC(C)C)C(=O)N[C@H](C(=O)N[C@@H](CCCNC(=N)N)C(=O)N[C@@H](C)C(=O)N[C@@H](C)C(=O)N[C@@H](CCC(N)=O)C(=O)N[C@@H](CCC(=O)O)C(=O)N[C@@H](CCC(N)=O)C(=O)N[C@@H](CCC(N)=O)C(=O)N[C@@H](CCC(=O)O)C(=O)N[C@@H](CCCCN)C(=O)N[C@@H](CC(N)=O)C(=O)N[C@@H](CCC(=O)O)C(=O)N[C@@H](C)C(=O)N[C@@H](C)C(=O)N[C@@H](CC(C)C)C(=O)N[C@@H](CCCNC(=N)N)C(N)=O)[C@@H](C)CC)[C@@H](C)CC)NC(=O)[C@H](C)NC1=O
B2: peptide 55 (peptide)
peptide: Suc-ENYLRLIEELIRKAQEQQEKNEAALRGSGK(Palmitoyl)-NH2
SMILES: CCCCCCCCCCCCCCCC(=O)NCCCC[C@H](NC(=O)CNC(=O)[C@H](CO)NC(=O)CNC(=O)[C@H](CCCNC(=N)N)NC(=O)[C@H](CC(C)C)NC(=O)[C@H](C)NC(=O)[C@H](C)NC(=O)[C@H](CCC(=O)O)NC(=O)[C@H](CC(N)=O)NC(=O)[C@H](CCCCN)NC(=O)[C@H](CCC(=O)O)NC(=O)[C@H](CCC(N)=O)NC(=O)[C@H](CCC(N)=O)NC(=O)[C@H](CCC(=O)O)NC(=O)[C@H](CCC(N)=O)NC(=O)[C@H](C)NC(=O)[C@H](CCCCN)NC(=O)[C@H](CCCNC(=N)N)NC(=O)[C@@H](NC(=O)[C@H](CC(C)C)NC(=O)[C@H](CCC(=O)O)NC(=O)[C@H](CCC(=O)O)NC(=O)[C@@H](NC(=O)[C@H](CC(C)C)NC(=O)[C@H](CCCNC(=N)N)NC(=O)[C@H](CC(C)C)NC(=O)[C@H](Cc1ccc(O)cc1)NC(=O)[C@H](CC(N)=O)NC(=O)[C@H](CCC(=O)O)NC(=O)CCC(=O)O)[C@@H](C)CC)[C@@H](C)CC)C(N)=O
B3: peptide 52 (peptide)
peptide: Pentanoyl-ENYLALIEELIRKAQEQQEKNEAALR-NH2
SMILES: CCCCC(=O)N[C@@H](CCC(=O)O)C(=O)N[C@@H](CC(N)=O)C(=O)N[C@@H](Cc1ccc(O)cc1)C(=O)N[C@@H](CC(C)C)C(=O)N[C@@H](C)C(=O)N[C@@H](CC(C)C)C(=O)N[C@H](C(=O)N[C@@H](CCC(=O)O)C(=O)N[C@@H](CCC(=O)O)C(=O)N[C@@H](CC(C)C)C(=O)N[C@H](C(=O)N[C@@H](CCCNC(=N)N)C(=O)N[C@@H](CCCCN)C(=O)N[C@@H](C)C(=O)N[C@@H](CCC(N)=O)C(=O)N[C@@H](CCC(=O)O)C(=O)N[C@@H](CCC(N)=O)C(=O)N[C@@H](CCC(N)=O)C(=O)N[C@@H](CCC(=O)O)C(=O)N[C@@H](CCCCN)C(=O)N[C@@H](CC(N)=O)C(=O)N[C@@H](CCC(=O)O)C(=O)N[C@@H](C)C(=O)N[C@@H](C)C(=O)N[C@@H](CC(C)C)C(=O)N[C@@H](CCCNC(=N)N)C(N)=O)[C@@H](C)CC)[C@@H](C)CC
B4: peptide 56 (peptide)
peptide: Ac-ACYLACIEALIRAAQEQQEKNEAALR-NH2
modifications: linker 2-6 via pXylylene
SMILES: CC[C@H](C)[C@H](NC(=O)[C@H](CC(C)C)NC(=O)[C@H](C)NC(=O)[C@H](CCC(=O)O)NC(=O)[C@@H](NC(=O)[C@@H]1CSCc2ccc(cc2)CSC[C@H](NC(=O)[C@H](C)NC(C)=O)C(=O)N[C@@H](Cc2ccc(O)cc2)C(=O)N[C@@H](CC(C)C)C(=O)N[C@@H](C)C(=O)N1)[C@@H](C)CC)C(=O)N[C@@H](CCCNC(=N)N)C(=O)N[C@@H](C)C(=O)N[C@@H](C)C(=O)N[C@@H](CCC(N)=O)C(=O)N[C@@H](CCC(=O)O)C(=O)N[C@@H](CCC(N)=O)C(=O)N[C@@H](CCC(N)=O)C(=O)N[C@@H](CCC(=O)O)C(=O)N[C@@H](CCCCN)C(=O)N[C@@H](CC(N)=O)C(=O)N[C@@H](CCC(=O)O)C(=O)N[C@@H](C)C(=O)N[C@@H](C)C(=O)N[C@@H](CC(C)C)C(=O)N[C@@H](CCCNC(=N)N)C(N)=O
B5: peptide 62 (peptide)
peptide: Ac-ACYVACIEALIRAAQEQQEKNEAALR-NH2
modifications: linker 2-6 via pXylylene
SMILES: CC[C@H](C)[C@H](NC(=O)[C@H](CC(C)C)NC(=O)[C@H](C)NC(=O)[C@H](CCC(=O)O)NC(=O)[C@@H](NC(=O)[C@@H]1CSCc2ccc(cc2)CSC[C@H](NC(=O)[C@H](C)NC(C)=O)C(=O)N[C@@H](Cc2ccc(O)cc2)C(=O)N[C@@H](C(C)C)C(=O)N[C@@H](C)C(=O)N1)[C@@H](C)CC)C(=O)N[C@@H](CCCNC(=N)N)C(=O)N[C@@H](C)C(=O)N[C@@H](C)C(=O)N[C@@H](CCC(N)=O)C(=O)N[C@@H](CCC(=O)O)C(=O)N[C@@H](CCC(N)=O)C(=O)N[C@@H](CCC(N)=O)C(=O)N[C@@H](CCC(=O)O)C(=O)N[C@@H](CCCCN)C(=O)N[C@@H](CC(N)=O)C(=O)N[C@@H](CCC(=O)O)C(=O)N[C@@H](C)C(=O)N[C@@H](C)C(=O)N[C@@H](CC(C)C)C(=O)N[C@@H](CCCNC(=N)N)C(N)=O
B6: peptide 61 (peptide)
peptide: Ac-ACYFACIEALIRAAQEQQEKNEAALR-NH2
modifications: linker 2-6 via pXylylene
SMILES: CC[C@H](C)[C@H](NC(=O)[C@H](CC(C)C)NC(=O)[C@H](C)NC(=O)[C@H](CCC(=O)O)NC(=O)[C@@H](NC(=O)[C@@H]1CSCc2ccc(cc2)CSC[C@H](NC(=O)[C@H](C)NC(C)=O)C(=O)N[C@@H](Cc2ccc(O)cc2)C(=O)N[C@@H](Cc2ccccc2)C(=O)N[C@@H](C)C(=O)N1)[C@@H](C)CC)C(=O)N[C@@H](CCCNC(=N)N)C(=O)N[C@@H](C)C(=O)N[C@@H](C)C(=O)N[C@@H](CCC(N)=O)C(=O)N[C@@H](CCC(=O)O)C(=O)N[C@@H](CCC(N)=O)C(=O)N[C@@H](CCC(N)=O)C(=O)N[C@@H](CCC(=O)O)C(=O)N[C@@H](CCCCN)C(=O)N[C@@H](CC(N)=O)C(=O)N[C@@H](CCC(=O)O)C(=O)N[C@@H](C)C(=O)N[C@@H](C)C(=O)N[C@@H](CC(C)C)C(=O)N[C@@H](CCCNC(=N)N)C(N)=O
B7: peptide 54 (peptide)
peptide: Ac-ACYLACIEALIRAAQEQQEKNEAALL-NH2
modifications: linker 2-6 via pXylylene
SMILES: CC[C@H](C)[C@H](NC(=O)[C@H](CC(C)C)NC(=O)[C@H](C)NC(=O)[C@H](CCC(=O)O)NC(=O)[C@@H](NC(=O)[C@@H]1CSCc2ccc(cc2)CSC[C@H](NC(=O)[C@H](C)NC(C)=O)C(=O)N[C@@H](Cc2ccc(O)cc2)C(=O)N[C@@H](CC(C)C)C(=O)N[C@@H](C)C(=O)N1)[C@@H](C)CC)C(=O)N[C@@H](CCCNC(=N)N)C(=O)N[C@@H](C)C(=O)N[C@@H](C)C(=O)N[C@@H](CCC(N)=O)C(=O)N[C@@H](CCC(=O)O)C(=O)N[C@@H](CCC(N)=O)C(=O)N[C@@H](CCC(N)=O)C(=O)N[C@@H](CCC(=O)O)C(=O)N[C@@H](CCCCN)C(=O)N[C@@H](CC(N)=O)C(=O)N[C@@H](CCC(=O)O)C(=O)N[C@@H](C)C(=O)N[C@@H](C)C(=O)N[C@@H](CC(C)C)C(=O)N[C@@H](CC(C)C)C(N)=O
B8: peptide 63 (peptide)
peptide: Ac-ACYWACIEALIRAAQEQQEKNEAALR-NH2
modifications: linker 2-6 via pXylylene
SMILES: CC[C@H](C)[C@H](NC(=O)[C@H](CC(C)C)NC(=O)[C@H](C)NC(=O)[C@H](CCC(=O)O)NC(=O)[C@@H](NC(=O)[C@@H]1CSCc2ccc(cc2)CSC[C@H](NC(=O)[C@H](C)NC(C)=O)C(=O)N[C@@H](Cc2ccc(O)cc2)C(=O)N[C@@H](Cc2c[nH]c3ccccc23)C(=O)N[C@@H](C)C(=O)N1)[C@@H](C)CC)C(=O)N[C@@H](CCCNC(=N)N)C(=O)N[C@@H](C)C(=O)N[C@@H](C)C(=O)N[C@@H](CCC(N)=O)C(=O)N[C@@H](CCC(=O)O)C(=O)N[C@@H](CCC(N)=O)C(=O)N[C@@H](CCC(N)=O)C(=O)N[C@@H](CCC(=O)O)C(=O)N[C@@H](CCCCN)C(=O)N[C@@H](CC(N)=O)C(=O)N[C@@H](CCC(=O)O)C(=O)N[C@@H](C)C(=O)N[C@@H](C)C(=O)N[C@@H](CC(C)C)C(=O)N[C@@H](CCCNC(=N)N)C(N)=O
B9: peptide 53 (peptide)
peptide: Ac-ECYAACIEELIRKAQEQQEKNEAALR-NH2
modifications: linker 2-6 via pXylylene
SMILES: CC[C@H](C)[C@H](NC(=O)[C@@H]1CSCc2ccc(cc2)CSC[C@H](NC(=O)[C@H](CCC(=O)O)NC(C)=O)C(=O)N[C@@H](Cc2ccc(O)cc2)C(=O)N[C@@H](C)C(=O)N[C@@H](C)C(=O)N1)C(=O)N[C@@H](CCC(=O)O)C(=O)N[C@@H](CCC(=O)O)C(=O)N[C@@H](CC(C)C)C(=O)N[C@H](C(=O)N[C@@H](CCCNC(=N)N)C(=O)N[C@@H](CCCCN)C(=O)N[C@@H](C)C(=O)N[C@@H](CCC(N)=O)C(=O)N[C@@H](CCC(=O)O)C(=O)N[C@@H](CCC(N)=O)C(=O)N[C@@H](CCC(N)=O)C(=O)N[C@@H](CCC(=O)O)C(=O)N[C@@H](CCCCN)C(=O)N[C@@H](CC(N)=O)C(=O)N[C@@H](CCC(=O)O)C(=O)N[C@@H](C)C(=O)N[C@@H](C)C(=O)N[C@@H](CC(C)C)C(=O)N[C@@H](CCCNC(=N)N)C(N)=O)[C@@H](C)CC

What follows are binders tested against gp41 of HIV-1 strain HXB2D with mutation V38A (HIV-1 strain HXB2D, UniProt P04578) (assay: cell-based or functional assay).
With Ac-ACY[tBuAla]ACIEALIRAAQEQQEKNEAALR-NH2 (linker 2-6 via B1; reading uncertain) [peptide 60] the “fold change in EC50, HIV-HXB2D V38A mutant” value (“fold change in EC50” below) was 18 fold.
In the case of B1, the “fold change in EC50” value is reported as 23 fold.
With B2 the “fold change in EC50” value was 1 fold.
In the case of Ac-ACY[Cha]ACIEALIRAAQEQQEKNEAALR-NH2 (linker 2-6 via B1; reading uncertain) [peptide 59], the “fold change in EC50” value is reported as 18 fold.
Ac-ANYAALIEALIRAAQEQQEKNEAALR-NH2 [peptide 2] was tested, and the “fold change in EC50” value was 61 fold.
In the case of B3, the “fold change in EC50” value is reported as 5 fold.
In the case of B4, the “fold change in EC50” value is reported as 61 fold.
In the case of B5, the “fold change in EC50” value is reported as 15 fold.
In the case of B6, the “fold change in EC50” value is reported as 20 fold.
With B7 the “fold change in EC50” value was 31 fold.
With B8 the “fold change in EC50” value was 22 fold.
With Ac-ACYAACIEALIRAAQEQQEKNEAALR-NH2 (linker 2-6 via ortho‑xylene) [peptide 64] the “fold change in EC50” value was 15 fold.
In the case of B9, the “fold change in EC50” value is reported as 34 fold.
